# Experimental data as given in patent US10640556B2, “Anti amphiregulin antibodies, compositions comprising same and uses thereof” (Yeda Research and Development Co. Ltd., priority 2015, dated 2020).
# T1: murine AREG (Mus musculus, UniProt P31955)
# T1 construct: purchased Peprotech
# T1 sequence (P31955 94-191 limits assumed): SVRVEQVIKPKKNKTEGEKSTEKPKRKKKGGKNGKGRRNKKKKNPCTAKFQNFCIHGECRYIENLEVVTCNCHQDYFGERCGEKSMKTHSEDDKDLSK
# T2: human AREG (Homo sapiens, UniProt P15514)
# T2 sequence (P15514 101-198 limits assumed): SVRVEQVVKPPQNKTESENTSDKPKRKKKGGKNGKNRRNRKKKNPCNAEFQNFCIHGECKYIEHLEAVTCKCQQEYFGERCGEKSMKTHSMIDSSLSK
# What was measured:
# [1] = tested on: feedback regulatory components of the EGFR signaling pathways; assay: qPCR of feedback regulators of EGFR signaling in MCF10A cells; type: cell-based, human
# Protocol: FIGS. 3A-3F illustrate that amphiregulin acts as a weak inducer of transcription-mediated feedback regulatory loops of EGFR signaling. […] Shown are mRNA profiles representative of two independent biological repeats.
# Total RNA was extracted using the PerfectPure RNA Cultured Cell Kit (5-prime) according to the manufacturer's instructions. Total RNA quantity and quality were determined using the NanoDrop® ND-1000 Spectrophotometer. Complementary DNA was synthesized using the High Capacity Reverse Transcription kit (Applied Biosystems, Life Technologies). Primers for the positive (EREG, TGF-alpha and HB-EGF), negative regulators (MIG6/RALT, DUSP1 and DUSP6) and beta2-microglobulin (B2M) were as previously described (Lauriola M et al., (2014) Nat Commun. 5: 5073). The KiCqStart primers from Sigma-Aldrich were used to detect the levels of human AREG (H_AREG_3). Real-time qPCR analysis was performed with SYBR Green (Applied Biosystems) and specific primers on the StepOne Plus Real-Time PCR system (Applied Biosystems). qPCR signals (cT) were normalized to B2M.
# EGFR [2] = target: T3, EGFR (Homo sapiens, UniProt P00533); assay: Receptor downregulation assay in MCF10A cells; type: cell-based; parameters: endogenous in cells; settings: AREG 1 ng/mL or 100 ng/mL
# Protocol: FIGS. 2G-2H illustrate that AREG is a low affinity ligand able to induce only limited receptor downregulation in normal epithelial cells. FIG. 2G is a graph illustrating results of the immortalized human mammary cell line MCF10A used for ligand displacement assays. […] The cells were later washed and lysed, and the associated radioactivity was determined. The extent of ligand displacement (mean±range of triplicates) is depicted; and FIG. 2H is a graph illustrating results of MCF10A cells grown in 12 well plates and starved overnight for serum factors. […] The cells were later washed, lysed in 1N NaOH and their radioactivity was determined. Averages of triplicates and S.D. values (bars) are presented.
# (§1) At the end of the incubation period, the cells were placed on ice, washed with ice cold medium and subjected to mild acid wash (0.2 M Na-acetate buffer, pH 4.5, and 0.5 M NaCl) for 2 minutes, followed by 2 washes in ice cold medium. […] Finally, cells were lysed in 1 N NaOH, and their radioactivity was determined.
# EGFR [3] = target: T3, EGFR; assay: Ligand displacement of radiolabeled EGF on MCAS cells; type: binding; parameters: endogenous in cells; host or cells: MCAS, MLS, H358, A549; settings: displacement of 125I-EGF (50 ng/mL), 3 hours on ice
# Protocol: FIGS. 2A-2F illustrate that AREG is a low affinity ligand that induces limited receptor downregulation, as well as weak ubiquitination and degradation of EGFR. […] The cells were later washed and lysed, and the associated radioactivity was determined. The extent of ligand displacement (mean±range of triplicates) was plotted with respect to binding in the absence of an unlabeled ligand; FIG. 2B is a graph showing results of MCAS ovarian cells incubated in a 12 well plate and starved overnight for serum factors. […] The cells were later washed and lysed in 1 N NaOH. Cell-associated radioactivity was determined. […] Washed immunocomplexes, along with whole extracts, were immunoblotted with the indicated antibodies.
# For ligand displacement assays, cells were grown in 12-well plates and serum-starved for 12-15 hours. […] The cells were later washed, lysed and their radioactivity counted.
# EGFR [4] = target: T3, EGFR; assay: Receptor downregulation assay in MCAS cells; type: cell-based; parameters: endogenous in cells; host or cells: MCAS, MLS, H358, A549; settings: ligand 50 ng/ml
# Protocol: (§2) The cells were later washed and lysed, and the associated radioactivity was determined. […] The cells were later washed and lysed in 1 N NaOH. Cell-associated radioactivity was determined. […] Washed immunocomplexes, along with whole extracts, were immunoblotted with the indicated antibodies.
# as §1
# EGFR [5] = target: T3, EGFR; assay: Ligand-induced receptor ubiquitination assay (MCAS, MLS, H358, A549 cells); type: cell-based; parameters: endogenous in cells; host or cells: MCAS, MLS, H358, A549; settings: 10 minutes
# Protocol: as §2
# For determination of ligand-induced receptor ubiquitination, cells were extracted in lysis buffer (50 mM HEPES pH 7.5, 150 mM NaCl, 10% glycerol, 1% Triton X-100, 1 mM EDTA, 1 mM EGTA, 10 mM NaF and 30 mM 3-glycerol phosphate) with freshly added 0.2 mM Na3VO4, a protease inhibitor cocktail and 2 mM N-ethylmaleimide (NEM). Twenty μL of protein G agarose beads and 1 μg of antibody were added to 500 μg of protein lysate. After a 2 hour incubation at 4° C., the immunoprecipitates were collected by centrifugation at 14,000 rpm at 4° C. for 1 minute. The supernatant was discarded and the pellet was washed thrice, prior to electrophoresis.
# EGFR [6] = assay: AREG-induced EGFR phosphorylation in HeLa cells (immunoblot); type: cell-based, human; settings: AREG 100 ng/ml, mAb 0.1-50 μg/ml, FIG. 10A
# Protocol: FIGS. 6A-6F illustrate AR30, an anti-AREG monoclonal antibody, that inhibits auto-phosphorylation of EGFR. FIG. 6A is a photograph of a Coomassie blue staining of an acrylamide gel showing a purified fraction of AREG isolated from bacteria and purified on a NiNTA column. The molecular weight marker lane indicates a 15 kilodalton band; FIG. 6B, cells were seeded in a 24 well plate, washed and incubated with increasing concentrations of the purified TRX-AREG fusion protein (8.5, 85, 850, 8500 ng/ml). […] Following a 10-min long incubation, the cells were lysed and cleared extracts immunoblotted (IB) with an anti-phosphotyrosine antibody (PY-99); FIG. 6C, 96 well plates were coated with the indicated ligands (0.1 μg/ml), and then incubated for 3 hours with three different mAbs specific to AREG. Thereafter, wells were incubated for two hours with an anti-mouse antibody conjugated to HRP, followed by a 30 minutes incubation with ATBS. […] Serum from non-immunized mice was used as a negative control; FIG. 6E, HeLa cells were pre-incubated with (or without) mAb AR30 (20 μg/mL) and increasing concentrations of AREG. Thereafter, whole cell lysates were immunoblotted (IB) using an antibody specific to the phosphorylated form of EGFR (tyrosine 1068) or an antibody to EGFR; and FIG. 6F, HeLa cells were incubated with (or without) AREG (100 ng/mL) in the presence of increasing concentrations of mAb AR30 (5, 10, 20 and 50 μg/mL). Thereafter, cells were lysed and cleared extracts immunoblotted (IB) using the indicated antibodies.
# FIG. 10A illustrates that anti-AREG mAbs inhibit ligand-induced activation of EGFR. HeLa cells were incubated with (or without) AREG (100 ng/ml) in the presence of increasing concentrations of mAb AR30, mAb AR 37 or mAb AR558 (0.1, 0.2, 0.5, 0.75, 1.5, 3.5, 6.25, 12.5, 25 and 50 μg/ml). Thereafter, cells were lysed and cleared extracts immunoblotted (IB) using the indicated antibodies, including an antibody specific to the phosphorylated (active) for of EGFR (pEGFR).
# murine AREG = target: T1, murine AREG; assay: ELISA on plates coated with murine AREG; type: binding
# Protocol: FIG. 9A—96 well plates were coated with the indicated ligands (400 ng/mL), including a murine HB-EGF fused to thioredoxin. Plates were incubated for 2 hours with 3 different mAbs specific to AREG (as indicated). Thereafter, wells were incubated for two hours with an anti-mouse antibody conjugated to HRP, followed by a 30 minute incubation with ATBS. Signals were determined using an ELISA reader (set at 415 nm). […] Thereafter, wells were incubated for two hours with an anti-mouse antibody conjugated to HRP, followed by a 30-min incubation with ATBS. Signals were determined using an ELISA reader (set at 415 nm). […] 96-well plates were coated with decreasing concentrations (400, 200, 100, 50, 25 and 10 ng/mL) of the indicated 3 ligands, and then incubated for 2 hours with three different mAbs specific to AREG (AR30, AR37 and AR558) at […]. Thereafter, wells were incubated for two hours with an anti-mouse antibody conjugated to HRP, followed by a 20-min incubation with ATBS. Signals were determined using an ELISA reader (set at 420 nm).
# human AREG = target: T2, human AREG; assay: Antigenic determinant comparison of anti-AREG mAbs; type: binding; settings: data not shown
# MCF10A cells = assay: MTS proliferation assay of MCF10A cells; type: cell-based, human; settings: 72 h, absence or presence of AREG, relatively high mAb concentrations
# Protocol: Proliferation assays using MTS were performed on MCF10A cells (1,000 cells per well). C ells were plated on the day before and treated for 72 h with the indicated mAbs (1, 5, 10, 20 or 50 ug/mL). Increasing concentrations of the indicated mAbs (either alone or in combination with AREG) were used in medium supplemented with 1% serum and AREG (either at 10 or 100 ng/mL).
# [7] = tested on: Cal-27 human head and neck cancer cells; assay: Cal-27 head and neck tumor xenograft in nude mice; type: in vivo; settings: Cal-27 tumors, 300 μg per injection intraperitoneally twice a week
# Protocol: Female nude mice were inoculated subcutaneously with Cal-27 human head and neck cancer cells (2×10^6). Once tumors became palpable (5-7 days) mice were randomized and intraperitoneally injected with saline (Control), or with anti-AR mAbs: AR30, AR37 or AR558 (each at 300 μg per injection). Mice were treated with mAbs twice a week and tumor volume was followed. Shown are averages and SD values from at least 5 mice per group.
# To test the ability of anti-AREG antibodies to reduce growth of human tumor cells implanted in immunocompromised mice, Cal 27 tumor cells were used which were inoculated subcutaneously and randomized for treatment after tumors became palpable. […] Furthermore, studies testing pairs of two mAbs illustrate their enhanced anti-tumor activities (data not shown), this can be attributed to the fact that the mAbs bind to distinct antigenic determinants of amphiregulin.
lower binding affinity compared to EGF (EGFR [3]),EGFR downregulation (EGFR [4]),"ubiquitination of EGFR (EGFR [5]; ligand 100 ng/mL, MCAS, MLS, H358, A549 cells)","recognition of murine AREG (ELISA) (murine AREG; ligand coated at 400-10 ng/mL, FIG. 9C)",Molecule,induction of feedback regulator transcripts (qPCR) ([1]; ligand 10 ng/ml),induction of feedback regulator transcripts (qPCR) ([1]; ligand 100 ng/ml),EGFR downregulation (EGFR [2]),ubiquitination of EGFR (EGFR [5]; ten-fold higher concentration (1 μg/mL)),AREG-induced phosphorylation of EGFR (EGFR [6]),"recognition of murine AREG (ELISA) (murine AREG; ligand coated at 400 ng/mL, FIG. 9A)",antigenic determinant targeted (human AREG),inhibition of proliferation (MCF10A cells),tumor growth [7]
approximately 100 fold,approximately 30%,failed to do so,,"AREG: amphiregulin, low-affinity EGF-family ligand of EGFR",hardly detectable signals,"clear, time dependent transcription of the six tested genes",effective downregulation of EGFR was observed only when testing very high concentrations,comparable levels of receptor ubiquitination as EGF and TGF-alpha,,,,,
,,,recognised the murine molecule,"AR37: anti-AREG monoclonal antibody from AREG knockout mice; heavy chain SEQ ID NO: 62, light chain SEQ ID NO: 93 (antibody, not fully specified; AR37 heavy chain IgG complete amino acids coding sequence; (35)..(35) Xaa can be any naturally occurring amino acid; (73)..(73) Xaa can be any naturally occurring amino acid; AR37 light chain (IgG) complete amino acids coding sequence) heavy: EVQLVESGGDLVKPGGSLKLSCAASGFTFSNSGMXWFRLTPDKRLEWVATISSGSTYTFYPDTVKGRFIISRXNAKNTLYLQMSSLKSEDTAIYYCVREIWPVWGAGTTITVSSAKT light: QAVVTQESALSTSPGETVTLTCRSSTGAVTTSNYANWVQEKPDHLFTGLLGDTDNRPPGVPARFSGSLLGDKAALTITGAQTEDEAIYFCALWYSNHWVFGGGTKLTVL",,,,,low concentrations of the antibodies were sufficient for blocking,recognized the murine molecule better than the other two mAbs tested,engages a different determinant of human AREG,Moderate inhibition,comparably inhibit tumor growth
